Biological target: AEBP2 (shorter isoform) (human)
Test: negative-stain EM 3D reconstruction with localisation of MBP and GFP tags; purified PRC2-AEBP2 complex mildly cross-linked with 0.015% glutaraldehyde, stained with 2% uranyl formate; random conical tilt and projection matching, 21 Å; tags located in reference-free 2D class averages

Row | stoichiometry N | Substance
1 | 1 | Ezh2 (from UniProt Q15910-2 1-751) (enzyme)
2 | 1 | EED (from UniProt O75530 1-441) (natural protein)
